Experimental data from IntAct's records for PubMed 18033301.

B1: Vesicle transport through interaction with t-SNAREs homolog 1B (Mus musculus), O88384 (parent)
chain: MAASAASSEHFEKLHEIFRGLLEDLQGVPERLLGTAGTEEKKKLVRDFDENQQEANETLAEMEEELRYAPLTFRNPMMSKLRNYRKDLAKLHREVRSTPLTAAPGGRGDLKYGTYTLENEHLNRLQSQRALLLQGTESLNRATQSIERSHRIATETDQIGTEIIEELGEQRDQLERTKSRLVNTNENLSKSRKILRSMSRKVITNKLLLSVIILLELAILVGLVYYKFFRHH
partner: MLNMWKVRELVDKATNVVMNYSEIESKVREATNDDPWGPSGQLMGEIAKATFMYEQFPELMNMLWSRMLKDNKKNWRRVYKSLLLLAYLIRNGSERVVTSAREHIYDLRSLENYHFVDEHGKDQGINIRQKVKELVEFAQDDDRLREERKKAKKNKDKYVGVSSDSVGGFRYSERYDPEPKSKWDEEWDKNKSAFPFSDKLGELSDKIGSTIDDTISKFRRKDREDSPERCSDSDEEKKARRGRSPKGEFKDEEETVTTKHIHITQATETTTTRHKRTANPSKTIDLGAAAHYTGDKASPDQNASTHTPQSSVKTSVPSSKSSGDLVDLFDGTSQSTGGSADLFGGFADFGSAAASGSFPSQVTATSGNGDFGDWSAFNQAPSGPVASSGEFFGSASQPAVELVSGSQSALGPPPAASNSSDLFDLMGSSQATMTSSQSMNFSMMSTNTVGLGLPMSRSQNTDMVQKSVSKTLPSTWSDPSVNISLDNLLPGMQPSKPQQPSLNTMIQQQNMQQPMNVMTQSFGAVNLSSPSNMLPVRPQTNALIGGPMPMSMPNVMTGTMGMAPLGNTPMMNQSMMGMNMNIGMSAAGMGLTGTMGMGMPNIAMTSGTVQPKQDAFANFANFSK
B2: Clathrin interactor 1 (Homo sapiens), Q14677 (parent)
chain: B1 partner
partner: B1 chain

Variants of: B1
Conditions: with epn4_human CLINT1, Q14677

Row | effect of a mutation on the interaction | Variant
1 | disrupting interaction strength | S8W
2 | disrupting interaction strength | E65W

Further lines, the variant ahead of its results:

Row | Variant | effect of a mutation on the interaction
3 | E12A | disrupting interaction strength
4 | F73S | disrupting interaction strength
5 | E23R | disrupting interaction strength

Variants of: B2
Conditions: with vti1b_mouse Vti1b

Row | effect of a mutation on the interaction | Variant
6 | disrupting interaction strength | F52D
7 | disrupting interaction strength | R146E
8 | disrupting interaction strength | M53D;Y54D
9 | disrupting interaction strength | R96S
